From paper PMC4641729, “NurA Is Endowed with Endo- and Exonuclease Activities that Are Modulated by HerA: New Insight into Their Role in DNA-End Processing” (PLoS ONE, 2015) come the findings set out here.

The chains are these.
B1: Sulfolobus solfataricus HerA (enzyme, UniProt Q97WG8 1-500, looked up)
chain: MIIGYVIGQATTQEALILAERPVRLGTYVVLEYDNVKALGLITNVTRGSPMLDDNMNDIEIVQRLKQFNNSIPVYTKAKVKMLCDMNNHFLMPDIPPFAGTPAREAEDEELKSIYSQDGQIRIGSLIGKNVEVKLNINSFARHLAILAATGSGKSNTVAVLSQRISELGGSVLIFDYHGEYYDSDIKNLNRIEPKLNPLYMTPREFSTLLEIRENAIIQYRILRRAFIKVTNGIREKLKEGQIPFSTLNSQFYELMKDELETQGNSDKKSSAKDEVLNKFEEFMDRYSNVIDLTSSDIIEKVKRGKVNVVSLTQLDEDSMDAVVSHYLRRILDSRKDFKRSKNSGLKFPIIAVIEEAHVFLSKNENTLTKYWASRIAREGRKFGVGLTIVSQRPKGLDENILSQMTNKIILKIIEPTDKKYILESSDNLSEDLAEQLSSLDVGEAIIIGKIVKLPAVVKIDMFEGKLLGSDPDMIGEWKKVEESEKIAKGFADFGTEIGD
notes: HerA ATPase, ORF SSO2251, Sulfolobus solfataricus strain P2; whole ORF amplified from genomic DNA with primers from the start codon to the stop codon, cloned BamHI/EcoRI into pet29a; 56 kDa as monomer; Hexamer in solution by gel filtration; Cloned at BamHI/EcoRI of pet29a, downstream of the vector's N-terminal S-tag; also called SSO2251; source: E. coli BL21-CodonPlus(DE3)-RIL, purified (heat …)

Data set [1] deals with the molecule itself. Put plainly: SEC; Superdex 200 10/300 GL gel filtration; 800 μg HerA and 200 μg NurA, separately or mixed, incubated at 60°C for 20 min before gel filtration; fractions analysed by SDS-PAGE.
Data set [2] has as its target B1. The description is as above. The following applies: both partners purified.
Data set [3] has as its target T1, HerA (Sulfolobus solfataricus P2, UniProt Q97WG8 1-500).
T1 sequence: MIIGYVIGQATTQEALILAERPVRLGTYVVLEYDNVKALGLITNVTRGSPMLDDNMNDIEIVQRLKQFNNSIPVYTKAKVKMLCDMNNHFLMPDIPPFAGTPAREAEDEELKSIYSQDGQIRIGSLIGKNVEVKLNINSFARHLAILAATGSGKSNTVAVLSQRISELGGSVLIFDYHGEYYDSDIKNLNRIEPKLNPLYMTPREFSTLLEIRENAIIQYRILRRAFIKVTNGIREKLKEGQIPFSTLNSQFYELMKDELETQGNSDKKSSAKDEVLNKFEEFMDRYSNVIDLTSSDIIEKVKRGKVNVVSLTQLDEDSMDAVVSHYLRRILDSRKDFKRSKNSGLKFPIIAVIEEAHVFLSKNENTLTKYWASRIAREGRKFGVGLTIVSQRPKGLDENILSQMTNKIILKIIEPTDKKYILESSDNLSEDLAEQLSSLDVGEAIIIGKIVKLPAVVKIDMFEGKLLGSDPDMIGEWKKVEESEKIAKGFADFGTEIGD
Put plainly: EMSA; 5 mM MgCl2, 2 mM EDTA; preferred substrate; EMSA: 20 mM HEPES/NaOH pH 7.5, 3.5 mM beta-mercaptoethanol, 50 mM NaCl, 5 mM MgCl2, 2 mM EDTA, 2 pmol DNA in 10 ul, 10 min at room temperature (NurA+HerA: 20 min at 70 C, then DNA 30 min at room temperature); 5% PAGE, 0.5x TBE. The following applies: protein: recombinant, cloned BamHI/EcoRI in pET29a, so a vector-derived N-terminal extension is possible, chain copies: 6.

As a reminder, the stoichiometry N is the number of molecules, sites or subunits per partner or assembly. With B1, in data set [1], the “stoichiometry N” value is 6.

B2: Sulfolobus solfataricus NurA (enzyme, UniProt Q97WH1 1-339, looked up)
chain: MIRKIYDKLVESHNEIKNQIYNIANYLKQEIQDKVNEYWNEYVINHEQSETCKFVAIDGGSFGRPMRIGIVYAVGAESVIGDNKGVKTLSEDGQIGIFKPGNDAQERISLLMEALELSLALRDGSKGDYILMDGSLSKKIGNKVDIQQFSDEELKLIRNVDLNGIISIKDERKMRDLLMLLNQFLVSKIIEEYDGNVLWISKVSRGRDLFGTDYPDITVLELFTEKRGFSKLIIKNIDIEKISEIPEIEVLRKMEYTTFYTRLDNGKRVIRVDIVGRVDEKIVKEIMDRLSGVSIKGYPFPLLKAHMDVRFSAMDREKIIKLVGSKLHKDIEWWPSQFY
notes: NurA nuclease, ORF SSO2248, Sulfolobus solfataricus strain P2; whole ORF amplified from genomic DNA with primers from the start codon to the stop codon, cloned NdeI/BamHI into pet29a; 39 kDa as monomer; Dimer in solution by gel filtration; Cloned at NdeI with its own stop codon, so probably untagged (surmise); also called SSO2248; NurAwt; source: E. coli BL21-CodonPlus(DE3)-RIL, purified (heat …)
For the molecule B2, in data set [2], the binding result is reported as “binds”. The “stoichiometry N” value in data set [1] was determined as 2.
As for GACGTGGGCAAAGGTTCGTCAATGGACTGACAGCTGCATGG (ssDNA) [ODN2 (single-stranded)], the binding result in data set [3] (label: 5' Cy5, single strand) was “binds”.

B3: 70mer EMI fork (70leadCy5/70 lag emi) (mixed)
DNA 1: CGTGACTTGATGTTAACCCTAACCCTAAGAATTCGGCTTAAGTGAGTGTGAGGATATCATGTACGATAGC
DNA 2: CACACTCACTTAAGCCGAATTCTTAGGGTTAGGGTTAACATCAAGTCACG
Take B3: the binding result in data set [3] (label: 5' Cy5 on strand 1, 3' overhang 20 nt on strand 1) is “binds”.

B4: 70mer bubble (70leadCy5/70 lag bubble) (mixed)
DNA 1: CGTGACTTGATGTTAACCCTAACCCTAAGAATTCGGCTTAAGTGAGTGTGAGGATATCATGTACGATAGC
DNA 2: GCTATCGTACATGATATCCTCACACTTTTTTTTTTTTTTTTTTTTGGGTTAGGGTTAACATCAAGTCACG
For the molecule B4, in data set [3] (label: 5' Cy5 on strand 1, blunt ends, internal T-tract bubble), the binding result is “binds”.
